Experimental findings from patent US7737158B2, “Processes for regulating blood glucose in a mammal” (Washington University, priority 2005, dated 2010) are described below.

In one data set the test system is wild type males. The data set can be described thus: Blood glucose after intraperitoneal injection of recombinant Nampt in fed wild type mice. In kind it is in vivo, mouse. To be noted: 1000 pmoles intraperitoneally, fed wild type males, 0, 30, 60 min. The method, then: If the NAD biosynthetic activity of Nampt is responsible for the phenotypes observed in Nampt^+/− mice, the administration of NMN, a product of the Nampt enzymatic reaction, should be able to correct their problems. To test this possibility, the same Nampt^+/− mice that were used for IPGTTs were injected with NMN at a dose of 500 mg/kg body weight intraperitoneally ˜14 hrs prior to IPGTTs. As a control, PBS was injected to the mice ˜14 hrs before conducting previous IPGTTs. […] Because these findings completely contradict the conclusion by Fukuhara et al., the reproducibility of the insulin-mimetic activity of this protein was examined. Here, 1000 pmoles of the bacterially produced recombinant protein of mouse His-tagged Nampt were injected intraperitoneally to fed wild type males. Blood glucose levels were monitored with a glucometer at 0, 30, and 60 min time points after injection.

Data set [1] deals with T1, mouse Nampt (Mus musculus, UniProt Q99KQ4). The data set can be described thus: HPLC detection of Nampt reaction products. The class given is biochemical. The arrangement: expressed in transfected cells; cell extracts or culture supernatant, anti-FLAG immunoprecipitates. Particulars: 37° C. How it is done: High performance liquid chromatography was used to detect Nampt reaction products. HPLC was performed with Waters 515 pumps and a 2487 detector (Waters, Mass.) with a Supelco LC-18-T column (15 cm×4.6 cm; Supelco, Pa.). The Nampt reaction was conducted at 37° C. for 15 min in 500 μl of reaction buffer (50 mM Tris-HCl [pH 7.5], 10 mM MgCl2, 50 mM nicotinamide, 0.2 mM PRPP) with 50 μg of the recombinant Nampt protein. The reaction was terminated by adding 125 μl of 1 M HClO4. Protein was then precipitated at 18,000 g, and 500 μl of the supernatant was neutralized with 40 μl of 3 M K2CO3. After centrifugation, 100 μl of sample was mixed with 400 μl of Buffer A (50 mM K2PO4/KHPO4, pH 7.0) and loaded into the HPLC system. The products from Nampt reaction were monitored by absorbance at 261 nm.

Data set [2] deals with T1, mouse Nampt. The data set can be described thus: Enzyme-coupled fluorometric assay of immunoprecipitated Nampt-FLAG and recombinant Nampt. The class given is biochemical. The arrangement: expressed in transfected cells; host or cells: mouse NIH3T3 fibroblasts and mouse HIB-1B preadipocytes (differentiated), stably transfected with pCXN2-Nampt-FLAG; cell extracts or culture supernatant, anti-FLAG immunoprecipitates. Particulars: NMN synthesis, 55 min at 37° C., pH8.5; Nampt amount quantified by Western blotting. How it is done:
For immunoprecipitation of intracellular Nampt, whole cell extracts were prepared with ice-cold immunoprecipitation (IP) buffer (phosphate buffer saline [pH 7.4], 0.5% NP-40, 1 mM EDTA,1 mM NaF, 10 μM Trichostatin A, 10 mM nicotinamide, 0.5 mM DTT, protease inhibitor cocktail (Roche)) and mixed with agarose beads conjugated with the mouse monoclonal M2 anti-FLAG antibody (F2426, Sigma) for 3-4 hours at 4° C. For immunoprecipitation of extracellular Nampt, HIB-1B culture supernatants were collected after incubating differentiated HIB-1B cells overnight with DMEM without fetal bovine serum but supplemented with 1 μg/ml insulin and 1 nM triodothyronine, filtered through a 0.22-μm PES membrane, concentrated with Amicon Ultra-15 columns (Millipore, MA), and mixed with anti-FLAG beads for 3-4 hours at 4° C. Immunoprecipitates were washed twice with the IP buffer and twice with PBS.
Immunoprecipitates on anti-FLAG beads were incubated in enzymatic reaction buffer (50 mM Tris-HCl (pH8.5), 100 mM NaCl, 0.25 mM Nicotinamide, 10 mM MgSO4, 1.5% Ethanol, 0.5 mM PRPP, 2.0 mM ATP) for 55 min at 37° C. After this reaction, mouse recombinant nicotinamide mononucleotide adenylyltransferase and yeast alcohol dehydrogenase (Sigma) were added at 10 μg/ml as the final concentration for each, and the mixture was incubated for 5 min at 37° C. Supernatants were then collected by spinning down anti-FLAG beads, and autofluorescence of NADH was measured in a Perkin Elmer LS 50B fluorometer (excitation: 340 nm; emission: 460 nm). Immunoprecipitates bound on anti-FLAG beads were extracted with Laemmli's sample buffer, boiled for 5 minutes, and analyzed by Western blotting with anti-Nampt antibodies. The amounts of Nampt used for enzymatic reactions were quantitated compared to the standards of mouse recombinant Nampt.
The immunoprecipitates from the HIB-1B culture supernatants were subjected to enzyme-coupled fluorometric assays (see Revollo et al., J. Biol. Chem., (2004)279, 50754-50763) to compare enzymatic activity of the intracellular and extracellular forms of Nampt. […] The Nampt enzymatic activity of the bacterially produced recombinant Nampt and the intracellular Nampt-FLAG® immunoprecipitated from HIB-1B and NIH3T3 cellular extracts were also measured and their kcat values calculated (see FIG. 16E). […] It is believed that a post-translational modification may be responsible for the altered enzymatic activity of extracellular Nampt produced by brown adipocytes. […] Despite the extensive mass spectrometric analysis of extracellular Nampt, the precise nature of the modification is currently unknown. Taken together, these findings provide strong evidence that Nampt functions as an NAD biosynthetic enzyme both intra- and extracellularly.
(A western blot detects proteins with antibodies after separation by electrophoresis.)

For data set [3], the target named is T1, mouse Nampt. Nature of the data set: Enzyme-coupled fluorometric assay, kinetic characterization of recombinant Nampt. In kind it is biochemical. Details: expressed in transfected cells; cell extracts or culture supernatant, anti-FLAG immunoprecipitates. The method, then:
Enzymatic activities of recombinant Nampt and Nmnat proteins were measured by an enzyme-coupled fluorometric assay (see, e.g., FIG. 4B). In this enzyme-coupled reaction, NAD is converted to NADH by alcohol dehydrogenase, and the fluorescence of NADH is detected in a fluorometer. To establish this assay system, optimal reaction conditions for Nmnat were initially examined by varying ATP and Mg^2+ concentrations and pH of the reaction buffer. The resultant reaction buffer for Nmnat contained 50 mM HEPES [pH 7.4], 0.02% BSA, 12 mM MgCl2, 2 mM ATP, 1.5% ethanol, and 30 μg/ml alcohol dehydrogenase to convert NAD to NADH. To determine the kinetic parameters for Nmnat, 30 ng of purified His-tagged Nmnat and varying concentrations of NMN were added to 1 ml of the reaction buffer. The reactions were run at 37° C. and quenched at six time points by the addition of 250 μl of 0.5 M EDTA. The production of NADH was measured by excitation at 340 nm and emission at 460 nm in a fluorometer. For kinetic characterization of Nampt, 500 ng of His-tagged Nampt and varying concentrations of nicotinamide were reacted at 37° C. in 100 μl of a buffer containing 50 mM Tris-HCl [pH 7.5], 0.02% BSA, 12 mM MgCl2, 2.5 mM ATP, 10 μg/ml His-tagged Nmnat, 0.4 mM phosphoribosyl pyrophosphate (PRPP), 1.5% ethanol, and 30 μg/ml alcohol dehydrogenase. NADH production was measured continuously in a fluorometer.
By using this enzyme-coupled fluorometric assay, kinetic parameters of purified recombinant mouse Nampt and Nmnat for nicotinamide and NMN, respectively, were determined (see, e.g., Table 1). The Lineweaver-Burk plots for these two enzymes are shown, for example, in FIGS. 11A and 11B. […] The Km and Vmax of mouse Nmnat are consistent with previously reported values for human NMNAT-1 (Emanuelli et al., J. Biol. Chem. (2001) 276, 406-412).

Setting [4] is: purified His-tagged recombinant mouse Nampt, substrate nicotinamide.

Entries after “also recorded” stand apart in the source; their conditions may differ.

B1: Nampt: Bacterially produced, His-tagged recombinant mouse nicotinamide phosphoribosyltransferase (protein)
chain: MNAAAEAEFNILLATDSYKVTHYKQYPPNTSKVYSYFECREKKTENSKVRKVKYEETVFYGLQYILNKYLKGKVVTKEKIQEAKEVYREHFQDDVFNERGWNYILEKYDGHLPIEVKAVPEGSVIPRGNVLFTVENTDPECYWLTNWIETILVQSWYPITVATNSREQKKILAKYLLETSGNLDGLEYKLHDFGYRGVSSQETAGIGASAHLVNFKGTDTVAGIALIKKYYGTKDPVPGYSVPAAEHSTITAWGKDHEKDAFEHIVTQFSSVPVSVVSDSYDIYNACEKIWGEDLRHLIVSRSTEAPLIIRPDSGNPLDTVLKVLDILGKKFPVTENSKGYKLLPPYLRVIQGDGVDINTLQEIVEGMKQKKWSIENVSFGSGGALLQKLTRDLLNCSFKCSYVVTNGLGVNVFKDPVADPNKRSKKGRLSLHRTPAGNFVTLEEGKGDLEEYGHDLLHTVFKNGKVTKSYSFDEVRKNAQLNIEQDVAPH
Broadly, the kcat is the maximal rate divided by the concentration of active sites. As usually defined, the Vmax is the rate approached at saturating substrate. As a reminder, the Km is the substrate concentration at which the rate is half of its maximum. For B1, the blood glucose levels result with wild type males (listed as recombinant Nampt) was “no significant effect”; in the data set on wild type males (listed as recombinant Nampt protein) it was “no decrease”. In addition, the figures for the “synthesis of nicotinamide mononucleotide (NMN) from nicotinamide and PRPP” value with mouse Nampt [1] and in the data set with mouse Nampt [1] (listed as mouse Nampt) were “robust synthesis” and “produced nicotinamide mononucleotide (NMN)”, respectively. For the same molecule, in the data set with mouse Nampt [1] (substrate specificity), the “synthesis of nicotinic acid mononucleotide (NaMN) from nicotinic acid and PRPP” value is listed as “failed to catalyze; also recorded: did not synthesize”. Also, the kcat in the data set with mouse Nampt [2] came out at 0.035 s⁻¹; with mouse Nampt [3] (setting [4]) it was 0.020 s⁻¹. The “catalytic efficiency of Nampt, fold less than that of Nmnat” value with mouse Nampt [3] (Nampt (nicotinamide) versus Nmnat (NMN)) is on record as approximately 46 fold. Further, in the data set with mouse Nampt [3] (setting [4]), the Vmax amounted to 0.021 µmol/min/mg. Moreover, the Km with mouse Nampt [3] (purified His-tagged recombinant mouse Nampt, substrate nicotinamide, 37° C.) is 0.92 µM.
